The text below walks through data of patent US20240109978A1.

This experiment has as its target CD19 on NALM-6 cells (CD19+ B lineage, acute lymphoblastic leukemia) (UniProt P15391). The experiment can be described thus: cell-based or functional assay.
Chain of UniProt P15391 (P15391 20-556 limits assumed): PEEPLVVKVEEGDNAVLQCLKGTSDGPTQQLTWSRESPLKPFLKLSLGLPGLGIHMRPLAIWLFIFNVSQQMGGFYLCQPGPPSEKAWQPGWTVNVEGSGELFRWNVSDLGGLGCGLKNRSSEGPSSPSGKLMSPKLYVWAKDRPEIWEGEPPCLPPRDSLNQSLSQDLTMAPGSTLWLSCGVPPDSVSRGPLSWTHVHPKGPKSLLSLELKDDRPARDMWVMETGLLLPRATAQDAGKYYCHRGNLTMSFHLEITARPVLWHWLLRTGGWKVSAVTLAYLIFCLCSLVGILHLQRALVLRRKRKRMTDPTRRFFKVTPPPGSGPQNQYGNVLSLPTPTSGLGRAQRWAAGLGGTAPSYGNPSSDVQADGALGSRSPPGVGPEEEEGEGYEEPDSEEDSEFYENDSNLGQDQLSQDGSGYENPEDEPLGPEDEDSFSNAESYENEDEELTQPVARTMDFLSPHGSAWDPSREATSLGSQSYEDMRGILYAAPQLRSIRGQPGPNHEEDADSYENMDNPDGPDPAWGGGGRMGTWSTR

In the case of “IgG1-based CAR (FMC63 scFv, IgG1-CH2-CH3 spacer, CD28 transmembrane and intracellular domains, and CD3zeta-signaling domain) (receptor)”, the killing efficacy against NALM-6 cells, 18 h co-culture, 2:1 (E:T) ratio (luciferase) was determined as 100%.
